Experimental data reported in publication PMC8660055.

Columns and labels:
[1] = target: PDCoV S2 protein (porcine deltacoronavirus (PDCoV)); assay: ELISA
[2] = target: PDCoV S1 protein (porcine deltacoronavirus (PDCoV)); assay: ELISA

Griffithsin (from UniProt P84801 1-121) (natural protein)
OD450 reached in ELISA [1]: 1.93 OD450 | OD450 reached in ELISA [2]: 3.68 OD450
